B1: GFP-FIP200 CTR aa 1458-1594 [human] / GST-p62 FIR 4P [human] (parent)
chain 1: RIMLLERTLQLKEEENKRLNQRLMSQSMSSVSSRHSEKIAIRDFQVGDLVLIILDERHDNYVLFTVSPTLYFLHSESLPALDLKPGEGASGASRRPWVLGKVMEKEYCQAKKAQNRFKVPLGTKFYRVKAVSWNKKV
chain 2: MESDNCSGGDDDWTHLSSKEVDPDTGELQSLQMPESEGPDDLDPDQEGPTGLKEA

Variants of: B1
Test: GSH bead recruitment assay imaged by microscopy
Conditions: with GST-p62 FIR 4P [human];; read off a plot

Row | percent of parent [%] | Variant
1 | 21 | chain 1 R127A
2 | 21 | chain 1 R116D
3 | 56 | chain 1 N60F
4 | 95 | chain 1 N60A
5 | 83 | chain 1 S75A

Second part, the variant before the results:

Row | Variant | percent of parent [%]
6 | chain 1 F117W | 80
7 | chain 1 F117A | 19
8 | chain 1 L78A | 100
9 | chain 1 L78F | 92

— article PMC6477179
